{
  "source": "paper PMC8865451",
  "about": "(Journal of Virology, 2021)",
  "molecular_target": "hyper-IL-6 (HIL-6)",
  "sequence (A0N0L4 whole entry, the tested form may be a part)": "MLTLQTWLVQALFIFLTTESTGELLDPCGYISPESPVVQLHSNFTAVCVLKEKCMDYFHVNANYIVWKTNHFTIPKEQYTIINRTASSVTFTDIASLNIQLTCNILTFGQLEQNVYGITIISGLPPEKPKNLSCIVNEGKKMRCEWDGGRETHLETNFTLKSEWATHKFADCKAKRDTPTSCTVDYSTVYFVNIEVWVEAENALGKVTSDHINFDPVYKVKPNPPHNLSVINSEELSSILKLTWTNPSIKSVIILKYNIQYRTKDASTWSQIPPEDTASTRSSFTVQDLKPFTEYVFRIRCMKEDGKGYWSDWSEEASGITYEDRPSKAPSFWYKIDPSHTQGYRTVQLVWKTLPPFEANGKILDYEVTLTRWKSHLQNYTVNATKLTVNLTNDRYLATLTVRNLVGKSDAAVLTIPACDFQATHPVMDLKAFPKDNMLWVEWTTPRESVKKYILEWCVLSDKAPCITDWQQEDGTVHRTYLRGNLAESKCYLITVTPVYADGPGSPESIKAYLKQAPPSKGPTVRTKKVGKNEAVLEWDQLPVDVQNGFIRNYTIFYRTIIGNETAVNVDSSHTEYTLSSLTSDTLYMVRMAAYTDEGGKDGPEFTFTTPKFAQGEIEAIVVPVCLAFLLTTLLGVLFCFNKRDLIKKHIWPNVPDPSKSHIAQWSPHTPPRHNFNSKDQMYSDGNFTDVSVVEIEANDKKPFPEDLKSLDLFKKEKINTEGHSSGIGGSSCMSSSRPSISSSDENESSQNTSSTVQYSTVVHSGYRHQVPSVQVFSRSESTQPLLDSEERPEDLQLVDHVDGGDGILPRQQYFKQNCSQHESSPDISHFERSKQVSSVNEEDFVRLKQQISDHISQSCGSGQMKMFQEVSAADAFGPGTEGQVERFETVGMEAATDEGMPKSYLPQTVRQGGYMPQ",
  "test": "SPR",
  "data": [
    {"binder": "c19s130Fc (Fc fusion) ELLDPCGYISPESPVVQLHSNFTAVCVLKEKCMDYFHVNANYIVWKTNHFTIPKEQYTIINRTASSVTFTDIASLNIQLTCNILTFGQLEQNVYGITIISGLPPEKPKNLSCIVNEGKKMRCEWDGGRETHLETNFTLKSEWATHKFADCKAKRDTPTSCTVDYSTVYFVNIEVWVEAENALGKVTSDHINFDPVYKVKPNPPHNLSVINSEELSSILKLTWTNPSIKSVIILKYNIQYRTKDASTWSQIPPEDTASTRSSFTVQDLKPFTEYVFRIRCMKEDGKGYWSDWSEEASGITYEDDVQFVESGGGSVHAGGSLRLNCATSGYIYSTYCMGWFRQAPGKEREGVAHIYTNSGRTYYADSVKGRFTISQDNAKNTVYLQMNSLKPEDTAIYYCAARPSIRCASFSATEYKDWGQGTQVTVSSTGGGGSGGGGSGGGGTGQVQLQESGGGLVQAGGSLRLSCAASGRTFSEYAMGWFRQAPGKEREFVATISWSGGSTYYTDSVKGRFTISRDNAKNTVYLQMNSLKPDDTAVYYCAAAGLGTVVSEWDYDYDYWGQGTQVTVSS", "values": [
      {"measurement": "Kd", "result": 0.055, "unit": "nM"},
      {"measurement": "koff", "result": "7.1e-05", "unit": "s⁻¹"}
    ]}
  ]
}
